In publication PMC9750192 (The Journal of Cell Biology, 2022):

Target: VASH2 (Cys158Ala), the VASH2 chain of the cryo-EM sample (human, UniProt Q86V25 1-355, Cys158 to alanine)
Assay: cryo-EM structure

Sequence of VASH2 (Cys158Ala), the VASH2 chain of the cryo-EM sample (Q86V25 whole entry C158A): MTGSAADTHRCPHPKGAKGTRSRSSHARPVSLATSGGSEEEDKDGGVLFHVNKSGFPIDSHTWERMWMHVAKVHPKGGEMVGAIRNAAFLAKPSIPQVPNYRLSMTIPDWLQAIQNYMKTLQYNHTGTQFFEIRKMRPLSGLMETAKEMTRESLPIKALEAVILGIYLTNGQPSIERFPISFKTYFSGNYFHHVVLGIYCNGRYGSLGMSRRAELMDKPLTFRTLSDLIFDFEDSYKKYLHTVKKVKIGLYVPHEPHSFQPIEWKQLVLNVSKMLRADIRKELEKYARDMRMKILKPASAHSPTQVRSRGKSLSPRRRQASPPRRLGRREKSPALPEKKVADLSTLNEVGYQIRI

B1: SVBP with a 6His tag, the SVBP chain of the cryo-EM sample (natural protein, human, UniProt Q8N300 1-66, looked up)
chain: MDPPARKEKTKVKESVSRVEKAKQKSAQQELKQRQRAEIYALNRVMTELEQQQFDEFCKQMQPPGE
binding result: binds
